Assay results taken from patent publication US20240279288A1, “APPLICATION OF PLANT JAZ PROTEINS AND DERIVED POLYPEPTIDES IN PREVENTION AND TREATMENT OF HUMAN AND ANIMAL TUMORS” (ANYANG INSTITUTE OF SINO-COTTON INDUSTRY INNOVATION, priority 2021, published 2024).

What was measured:
ATF domain of uPA = target: T1, ATF domain of uPA (Homo sapiens, UniProt P00749); test: Yeast two hybrid with ATF domain of uPA; format: binding
T1 construct: expressed in transfected cells
Excerpt: […]
In order to explore how GhJAZ1 enters cancer cells, we cloned the genes of most tumor surface receptors, including uPAR (NCBI database accession number of NM_002659.4), CCK1R (NP_000721.1), CCK2R (NP_001350481.1), HER2 (NP_004439.2), GRPR (NP_005305.1), MUC1 (NP_001358649.1), VEGFR1 (NP_002010.2), Insulin receptor (NM_000208.4), NTR (XM_011528827.2), PSMA (XM_017017432.1), TFR1 (NM_001128148.3), TFR2 (NM_003227.4), PEPT1 (NM_005073.4), APN (NM_001150.3). […] We detected the interaction of GhJAZ1 with uPA (as the ligand of uPAR, NCBI database accession number of NP_002649.2) and uPAR by yeast two hybrid (the steps of the experiment as Example 3). […]

[1] = test system: ovarian cancer cells SKOV3; test: CCK8 cell viability detection, SKOV3; format: cell-based, human; conditions: CCK8, 24 h treatment; read-out: IC50, inhibition of SKOV3 cells
Procedure: CCK8 cell viability detection: cell suspension was seeded in 96-well plates at a concentration of 5×10^4 cells/ml (100 μL/well). The plates were placed in the incubator for pre-culture (at 37° C., 5% CO2), and control and protein agents were added to each well 24 h after seeding. The plates were then placed in the incubator for 24 h, followed by addition of 10 μL CCK8 solution into each well and incubation of the plates in the incubator for 0.5-2 h before the absorbance measurement at 450 nm using a microplate reader.
Analysis of effect of GhJAZ1 protein on the cell cycle and apoptosis of tumor cells

MCF7 breast cancer cells = test: Apoptosis detection (Annexin V-FITC/PI), MCF7; format: cell-based, human; conditions: 0.691 μM, 24 h, vs PBS
Procedure: Apoptosis detection: cells were collected in 1.5 EP tubes and centrifuged at 300 g for 5 min, with the supernatant discarded, followed by collecting the cells, washing with PBS and resuspending. 1×10^5 resuspended cells were taken and centrifuged at 300 g for 5 min, with the supernatant discarded. The cells were washed with PBS, resuspended by adding 500 μl of diluted 1×Annexin V Binding Buffer working solution, and then a staining solution of 5 μL of Annexin V-FITC and 5 μL of propidium iodide (PI) were added and mixed well by vortex, followed by incubation at room temperature in the dark for 15-20 min, and detection on the instrument. Specifically, the Annexin V-FITC/PI fluorescent dual staining cell apoptosis detection kit (Wuhan Pricella Life Science & Technology Co., Ltd., Cat. No.: P-CA-201) was used.

B1: GhJAZ1: cotton JAZ1 protein, gene number Gh_A05G0260, sequence SEQ ID No. 4; prokaryotically expressed with His tag, about 30 KD (protein)
chain: MSSCSESTAMKPARSPEKPSFAQTCNLLSQYLKEKGSFGDLSLGMTCNVEANGTPVVPPPTMNLFPLNDKSDDVCGRNGGNPKNLTSMDLFPQQAGLASKDDSPNKLEPQTAPMTIFYGGQVIVFNDFPANKAKEIMLLASNSSSQSNNSFNPIPFTSSIARSPIESSIGVPPTSKPVHPAQRAVPGDLPIARRASLHRFLEKRKDRITAKAPYQINNSAAAPSLSGDNKSWLGLAAQSP
modifications: His tag
notes: prokaryotically expressed with His tag, about 30 KD
ATF domain of uPA
  interaction with the ATF domain of uPA: interacts
[1]
  IC50: 784 nM
MCF7 breast cancer cells
  apoptosis rate of cancer cells (MCF7): increased
